Assay results reported in PMC12090352, “Strigolactones enhance apple drought resistance via the MsABI5-MsSMXL1-MsNAC022 cascade”.

T1: MsABI5 (Malus sieversii, UniProt A0A498IDK6 1-328+A0A540LD52:305-441, internal_change)
T1 sequence: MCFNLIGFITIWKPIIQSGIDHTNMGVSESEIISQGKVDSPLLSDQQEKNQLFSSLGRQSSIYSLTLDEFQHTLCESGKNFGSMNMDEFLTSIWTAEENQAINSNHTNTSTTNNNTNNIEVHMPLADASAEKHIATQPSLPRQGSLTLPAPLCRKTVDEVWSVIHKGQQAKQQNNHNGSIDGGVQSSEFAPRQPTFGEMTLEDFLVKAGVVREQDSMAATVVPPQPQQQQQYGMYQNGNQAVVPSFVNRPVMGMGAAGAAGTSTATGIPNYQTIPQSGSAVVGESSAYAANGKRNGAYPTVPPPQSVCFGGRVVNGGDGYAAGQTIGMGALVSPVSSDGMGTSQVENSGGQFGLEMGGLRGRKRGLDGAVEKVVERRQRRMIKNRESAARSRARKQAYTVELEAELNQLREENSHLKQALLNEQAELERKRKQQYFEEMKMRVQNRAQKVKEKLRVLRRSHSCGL

B1: MsSMXL1 promoter P3 ACE probe (dsDNA)
DNA 1: ATGTTGATTAACGTACCACTTAGTAC
DNA 2: GTACTAAGTGGTACGTTAATCAACAT
B2: MsP5CS2.2 promoter ABRE probe (dsDNA)
DNA 1: AGAAACCGACACGTCTCTCTTTTCTA
DNA 2: TAGAAAAGAGAGACGTGTCGGTTTCT

Target: T1, MsABI5
Assay: EMSA; EMSA per manufacturer's instructions (Beyotime); buffer, salt, pH and temperature not stated
Details: protein: recombinant; tags: MBP (pMAL-C2X); chain copies: 2; blunt

Binder	binding result
B1	binds
B2	binds
